Test results from the supplement of paper PMC9876800.

Test system: peptide library, one residue held at a place counted from the S/T acceptor
Test: relative phosphorylation of the sub-library (ratio to the mean residue at this position); higher = residue favoured
In short: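 Relative sub-library phosphorylation is the ratio of each sub-library's signal to the mean residue at that position. The signal came from phosphorimaging of spots on streptavidin membranes, quantified by densitometry, after purified recombinant kinases reacted with biotinylated degenerate peptide sub-libraries in 384-well plates. Reactions held 50 μM peptide and 50 μM ATP spiked with γ-32P-ATP for 90 min under kinase-specific conditions.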

Sequence of LATS2, construct: aa553-end, human (Q9NRM7 553-1088, looked up): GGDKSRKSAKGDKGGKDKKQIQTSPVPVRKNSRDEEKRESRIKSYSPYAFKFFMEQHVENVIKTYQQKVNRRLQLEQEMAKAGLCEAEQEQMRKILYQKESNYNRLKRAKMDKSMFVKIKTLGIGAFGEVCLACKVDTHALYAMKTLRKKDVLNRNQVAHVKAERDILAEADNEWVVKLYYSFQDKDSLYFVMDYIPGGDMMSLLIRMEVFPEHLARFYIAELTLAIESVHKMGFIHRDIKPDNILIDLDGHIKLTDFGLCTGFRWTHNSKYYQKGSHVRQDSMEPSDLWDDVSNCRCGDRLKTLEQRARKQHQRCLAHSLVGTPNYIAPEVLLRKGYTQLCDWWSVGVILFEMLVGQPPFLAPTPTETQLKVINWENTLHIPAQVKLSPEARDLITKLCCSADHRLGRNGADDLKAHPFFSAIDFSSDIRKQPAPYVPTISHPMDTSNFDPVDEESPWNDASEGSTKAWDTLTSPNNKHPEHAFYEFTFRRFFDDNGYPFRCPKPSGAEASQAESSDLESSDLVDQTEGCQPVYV
Sequence of MAP3K11, construct: aa99-398, human (Q16584 99-398, looked up): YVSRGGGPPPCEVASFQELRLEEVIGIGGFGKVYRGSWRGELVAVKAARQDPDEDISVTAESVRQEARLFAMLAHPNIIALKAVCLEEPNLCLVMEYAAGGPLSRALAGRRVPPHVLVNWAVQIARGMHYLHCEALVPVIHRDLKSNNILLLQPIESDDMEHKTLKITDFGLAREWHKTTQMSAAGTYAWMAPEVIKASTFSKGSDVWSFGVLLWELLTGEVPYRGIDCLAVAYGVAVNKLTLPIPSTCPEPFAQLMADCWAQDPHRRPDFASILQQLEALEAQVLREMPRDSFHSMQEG
Sequence of GRK3, construct: Full length, human (P35626 whole entry, looked up): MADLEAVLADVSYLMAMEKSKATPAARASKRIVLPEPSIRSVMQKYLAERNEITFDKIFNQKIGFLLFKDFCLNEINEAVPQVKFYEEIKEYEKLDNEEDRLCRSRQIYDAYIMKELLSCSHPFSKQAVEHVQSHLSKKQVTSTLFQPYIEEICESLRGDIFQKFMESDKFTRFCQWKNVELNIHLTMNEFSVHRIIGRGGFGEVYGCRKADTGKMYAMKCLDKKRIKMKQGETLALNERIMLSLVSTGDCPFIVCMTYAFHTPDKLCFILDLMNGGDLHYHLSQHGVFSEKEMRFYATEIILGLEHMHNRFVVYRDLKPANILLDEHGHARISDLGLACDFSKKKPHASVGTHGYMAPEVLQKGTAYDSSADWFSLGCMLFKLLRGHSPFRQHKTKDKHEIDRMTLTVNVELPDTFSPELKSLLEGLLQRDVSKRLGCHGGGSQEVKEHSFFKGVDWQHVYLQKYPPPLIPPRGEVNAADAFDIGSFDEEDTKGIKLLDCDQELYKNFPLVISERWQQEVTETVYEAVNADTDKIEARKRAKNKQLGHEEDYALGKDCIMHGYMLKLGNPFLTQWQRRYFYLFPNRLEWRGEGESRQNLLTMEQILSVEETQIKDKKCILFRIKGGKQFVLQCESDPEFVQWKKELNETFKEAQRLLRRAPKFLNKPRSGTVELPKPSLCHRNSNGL
Sequence of MAP3K7, construct: aa1-303, human (O43318 1-303, looked up): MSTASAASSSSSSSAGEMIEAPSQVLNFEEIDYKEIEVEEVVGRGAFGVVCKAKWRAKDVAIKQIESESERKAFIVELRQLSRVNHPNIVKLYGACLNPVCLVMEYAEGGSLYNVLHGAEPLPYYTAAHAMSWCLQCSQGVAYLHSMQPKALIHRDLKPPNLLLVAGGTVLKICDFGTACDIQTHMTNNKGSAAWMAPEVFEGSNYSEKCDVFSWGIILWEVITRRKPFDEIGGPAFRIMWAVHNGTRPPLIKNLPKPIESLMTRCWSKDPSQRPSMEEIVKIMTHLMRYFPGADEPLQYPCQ

GRK3, construct: Full length, human (from UniProt P35626)
relative phosphorylation
Details	at +1	at +2	at +3	at +4	at -1	at -2	at -3	at -4	at -5
A fixed	0.782	1.39	0.849	0.868	0.913	0.745	0.971	1	1.03
D fixed	1.07	0.888	1.9	1.5	1.25	1.53	2.52	1.73	1.39
E fixed	1.75	0.887	1.99	1.36	1.62	4.07	3.01	1.78	1.2
F fixed	1.36	1.18	0.882	0.855	0.914	0.895	0.666	0.868	1.1
G fixed	0.857	0.967	1.04	1	0.703	0.784	0.822	0.962	0.9
H fixed	0.973	1.22	1.03	1.06	1.06	0.755	0.631	0.892	0.929
I fixed	1.27	1.44	0.933	1.1	0.913	0.573	0.649	0.855	1.06
K fixed	0.51	0.51	0.614	0.725	0.658	0.59	0.629	0.843	0.824
L fixed	0.766	0.705	0.898	0.829	0.979	0.688	0.604	0.844	1.03
M fixed	1.24	0.904	0.979	0.994	1.05	0.746	0.68	1	0.964
N fixed	0.742	0.874	0.922	1.03	1.02	0.854	0.845	0.932	0.946
P fixed	0.477	0.495	0.638	1.01	1.4	0.833	0.907	0.974	0.788
Q fixed	1.03	0.781	0.712	0.877	0.843	0.733	0.663	0.83	0.758
R fixed	0.646	0.614	0.631	0.709	0.819	1.13	1.6	1.1	0.933
V fixed	1.55	1.71	0.862	0.843	1.15	0.612	0.603	0.729	0.893
W fixed	0.93	0.948	0.922	1.25	0.595	0.657	0.592	0.815	1.02
Y fixed	1.03	1.48	1.2	0.992	1.12	0.794	0.605	0.847	1.23
pThr fixed	7.07	1.13	1.13	2.86	1.38	5.37	5.68	2.74	1.72
pTyr fixed	3.27	1.99	2.21	1.72	3.26	18.2	6.04	3.04	2.78

LATS2, construct: aa553-end, human (from UniProt Q9NRM7)
relative phosphorylation
Details	at +1	at +2	at +3	at +4	at -1	at -2	at -3	at -4	at -5
A fixed	0.577	1.11	0.859	0.703	0.693	0.789	0.766	1.15	0.615
D fixed	0.89	2.94	1.47	1.4	0.702	0.901	0.465	0.649	0.475
E fixed	0.953	0.932	1.36	1.49	0.516	1.27	0.352	0.739	0.308
F fixed	1.29	0.699	0.846	0.865	0.483	0.764	0.415	0.981	0.672
G fixed	0.876	1.53	1.54	1.27	0.994	1.13	0.769	1.15	0.706
H fixed	0.995	1.27	1.2	1.31	1.07	1.43	1.66	1.36	6.2
I fixed	1.16	0.853	0.778	0.671	0.331	0.321	0.242	0.49	0.308
K fixed	0.821	0.357	0.868	0.756	2.74	1.03	2.4	1.27	1.12
L fixed	1.12	0.862	0.825	0.661	0.699	0.393	0.297	0.587	0.458
M fixed	1.49	0.841	0.875	1.07	0.71	0.91	0.36	0.92	0.439
N fixed	1.42	1.01	1.03	1.28	1.12	1.64	0.784	0.925	0.607
P fixed	0.328	0.794	1.04	1.33	2.39	0.766	1.48	1.34	0.682
Q fixed	1.11	0.789	1.04	1.05	1.19	2.35	0.897	1.08	0.719
R fixed	0.717	0.357	0.617	0.741	1.42	1.26	4.37	1.78	1.43
V fixed	0.84	0.829	0.747	0.524	0.425	0.367	0.325	0.545	0.445
W fixed	1.23	0.807	1.03	0.887	0.746	0.899	0.691	1.08	1.04
Y fixed	1.18	1.02	0.874	0.996	0.779	0.782	0.734	0.966	0.776
pThr fixed	1.08	0.655	0.925	1.55	0.287	0.456	0.441	0.552	0.349
pTyr fixed	1.09	0.807	1.04	1.12	0.347	0.382	0.418	0.548	0.442

MAP3K7, construct: aa1-303, human (from UniProt O43318)
relative phosphorylation
Details	at +1	at +2	at +3	at +4	at -1	at -2	at -3	at -4	at -5
A fixed	0.455	0.709	0.902	0.855	0.708	0.979	1.18	0.95	1.05
D fixed	0.391	1.03	0.996	0.885	1.18	0.533	0.857	1.69	1.56
E fixed	0.668	0.547	0.878	0.898	0.687	0.863	0.662	1.33	1.17
F fixed	1.44	0.608	0.93	0.735	1.01	1.14	0.818	0.938	0.891
G fixed	0.565	0.809	1.39	1.18	0.528	0.592	0.714	1.14	1.04
H fixed	0.914	1.42	1.1	1.11	1.23	1.42	1.1	1.05	1.07
I fixed	1.41	0.623	0.714	0.921	0.888	1.2	1.14	0.872	0.781
K fixed	0.409	2.3	1.33	1.42	0.752	0.581	0.752	0.734	0.885
L fixed	2	0.608	0.821	0.949	1.57	1.01	1.13	0.834	0.77
M fixed	1.55	0.786	0.968	0.897	1.41	1.31	0.999	0.9	0.884
N fixed	2.36	1.44	1.07	0.959	1.13	0.633	0.649	0.962	0.987
P fixed	0.206	0.741	0.892	1.29	0.348	0.537	0.854	0.807	1.06
Q fixed	1.17	0.78	0.93	0.993	0.866	0.785	0.65	0.818	0.818
R fixed	0.597	2.39	1.33	1.29	1.02	1	1.54	0.795	0.994
V fixed	0.914	0.758	0.874	0.836	0.768	1.07	1	0.934	0.894
W fixed	0.963	0.646	0.969	0.923	1.2	1.31	1.37	1.14	1.07
Y fixed	0.979	0.804	0.903	0.866	1.7	2.04	1.58	1.11	1.08
pThr fixed	0.898	1.36	1.33	0.99	1.03	1.41	1.53	1.4	1.14
pTyr fixed	0.431	0.475	0.716	0.689	1.07	1.01	0.786	0.912	1.09

MAP3K11, construct: aa99-398, human (from UniProt Q16584)
relative phosphorylation
Details	at +1	at +2	at +3	at +4	at -1	at -2	at -3	at -4	at -5
A fixed	0.654	0.524	0.71	0.779	0.713	0.983	1.06	1.02	1.21
D fixed	0.261	0.298	0.538	0.592	1.06	1.07	1.34	1.66	1.78
E fixed	0.424	0.285	0.445	0.549	0.891	0.89	1.35	1.46	1.24
F fixed	1.15	0.42	1.21	0.746	0.792	1.12	0.841	0.799	0.716
G fixed	0.664	0.458	1.1	1.03	0.453	1.06	1.36	1.34	1.39
H fixed	1.36	1.53	1.17	1.07	1.52	0.919	1.24	1.03	1.14
I fixed	0.625	0.392	0.562	0.605	0.522	0.769	0.428	0.529	0.508
K fixed	1.79	3.9	2.18	3.13	1.3	0.55	0.933	0.901	1.2
L fixed	0.71	0.407	1	0.589	0.946	0.738	0.654	0.722	0.781
M fixed	1.35	0.49	0.743	0.656	1.28	1.16	0.835	0.749	0.634
N fixed	0.699	0.666	0.971	0.834	1.16	0.949	1.1	0.947	0.996
P fixed	0.268	0.352	0.641	1.58	0.914	2.31	1.64	1.63	1.4
Q fixed	1.33	0.705	0.753	0.876	0.901	0.679	0.948	0.89	0.865
R fixed	2.38	4.19	1.9	2.01	1.38	0.678	0.898	0.918	0.993
V fixed	0.903	0.367	0.756	0.647	0.771	0.779	0.581	0.559	0.903
W fixed	1.29	0.729	1.16	0.527	0.928	1.16	0.754	0.924	0.522
Y fixed	1.14	1.29	1.17	0.784	1.48	1.18	1.04	0.92	0.711
pThr fixed	0.895	0.476	0.69	0.685	0.686	1.02	1.18	1.38	1.21
pTyr fixed	0.498	0.528	0.608	0.454	1.08	0.972	1.27	1.06	1.08
